Assay results taken from publication PMC2191747 (The Journal of Experimental Medicine, 1994).

How the values were obtained:
Experiment in all cases: cell-cell adhesion assay
[1] = target: human CD58 K34A (human) (UniProt P19256)
[2] = target: T1, human CD58 K30A (human, UniProt P19256 29-250, K30A)
T1 sequence (looked up): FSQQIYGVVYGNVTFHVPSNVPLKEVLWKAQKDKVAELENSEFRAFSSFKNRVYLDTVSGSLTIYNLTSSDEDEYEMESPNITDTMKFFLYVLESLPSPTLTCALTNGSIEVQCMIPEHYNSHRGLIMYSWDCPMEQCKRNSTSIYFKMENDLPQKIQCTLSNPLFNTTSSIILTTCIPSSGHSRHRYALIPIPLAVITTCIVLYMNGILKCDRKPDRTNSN

[3] = target: T2, human CD58 D33A (human, UniProt P19256 29-250, D33A)
T2 sequence (looked up): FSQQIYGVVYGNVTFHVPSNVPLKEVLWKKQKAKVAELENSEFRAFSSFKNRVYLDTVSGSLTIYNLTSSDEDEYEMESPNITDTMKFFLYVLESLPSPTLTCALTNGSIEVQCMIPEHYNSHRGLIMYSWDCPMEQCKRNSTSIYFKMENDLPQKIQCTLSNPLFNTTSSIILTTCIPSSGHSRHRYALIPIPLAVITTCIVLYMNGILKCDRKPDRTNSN

[4] = target: T3, human CD58 E76A (human, UniProt P19256 29-250, E76A)
T3 sequence (looked up): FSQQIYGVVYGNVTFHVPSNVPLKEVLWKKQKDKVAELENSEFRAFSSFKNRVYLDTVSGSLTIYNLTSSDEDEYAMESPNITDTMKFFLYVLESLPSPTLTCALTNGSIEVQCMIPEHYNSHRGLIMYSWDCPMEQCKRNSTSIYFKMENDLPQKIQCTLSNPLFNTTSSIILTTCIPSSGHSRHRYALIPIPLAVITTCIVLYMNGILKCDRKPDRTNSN

[5] = target: T4, human CD58 E25A (human, UniProt P19256 29-250, E25A)
T4 sequence (looked up): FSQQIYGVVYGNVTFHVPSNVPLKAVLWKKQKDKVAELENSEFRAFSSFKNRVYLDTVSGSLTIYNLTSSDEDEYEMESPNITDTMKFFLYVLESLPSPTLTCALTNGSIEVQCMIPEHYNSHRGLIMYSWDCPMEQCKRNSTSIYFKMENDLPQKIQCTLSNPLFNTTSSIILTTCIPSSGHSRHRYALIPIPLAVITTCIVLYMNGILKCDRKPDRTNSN

[6] = target: T5, human CD58 K87A (human, UniProt P19256 29-250, K87A)
T5 sequence (looked up): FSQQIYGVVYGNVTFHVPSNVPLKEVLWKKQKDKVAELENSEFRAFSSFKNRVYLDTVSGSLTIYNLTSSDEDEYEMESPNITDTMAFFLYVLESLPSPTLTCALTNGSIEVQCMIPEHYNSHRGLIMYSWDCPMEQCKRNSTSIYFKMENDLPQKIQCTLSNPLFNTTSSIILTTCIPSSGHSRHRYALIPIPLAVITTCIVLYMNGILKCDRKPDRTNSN

[7] = target: T6, human CD58 E37A (human, UniProt P19256 29-250, E37A)
T6 sequence (looked up): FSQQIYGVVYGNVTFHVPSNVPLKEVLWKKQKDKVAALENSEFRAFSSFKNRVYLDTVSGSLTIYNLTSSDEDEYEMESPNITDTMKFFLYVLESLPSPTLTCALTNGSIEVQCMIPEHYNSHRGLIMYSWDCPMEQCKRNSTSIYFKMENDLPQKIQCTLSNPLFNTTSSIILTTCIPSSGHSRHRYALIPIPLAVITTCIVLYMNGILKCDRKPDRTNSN

[8] = target: T7, human CD58 R44A (human, UniProt P19256 29-250, R44A)
T7 sequence (looked up): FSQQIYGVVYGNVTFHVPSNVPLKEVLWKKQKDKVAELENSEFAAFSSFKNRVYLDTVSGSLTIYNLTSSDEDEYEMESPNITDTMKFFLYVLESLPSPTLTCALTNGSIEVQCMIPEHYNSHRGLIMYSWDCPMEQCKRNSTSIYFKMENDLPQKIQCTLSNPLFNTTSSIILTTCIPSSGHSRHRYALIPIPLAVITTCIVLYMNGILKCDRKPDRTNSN

| Molecule | % binding relative to wtCD58 [1] [%] | % binding relative to wtCD58 [2] [%] | % binding relative to wtCD58 [3] [%] | % binding relative to wtCD58 [4] [%] | % binding relative to wtCD58 [5] [%] | % binding relative to wtCD58 [6] [%] | % binding relative to wtCD58 [7] [%] | % binding relative to wtCD58 [8] [%] |
| --- | --- | --- | --- | --- | --- | --- | --- | --- |
| human CD2 (from UniProt P06729 25-351) (receptor) | 1 |  |  |  |  |  |  |  |
| human CD2 (receptor, human (endogenous in Jurkat), UniProt P06729 25-351, looked up) KEITNALETWGALGQDINLDIPSFQMSDDIDDIKWEKTSDKKKIAQFRKEKETFKEKDTYKLFKNGTLKIKHLKTDDQDIYKVSIYDTKGKNVLEKIFDLKIQERVSKPKISWTCINTTLTCEVMNGTDPELNLYQDGKHLKLSQRVITHKWTTSLSAKFKCTAGNKVSKESSVEPVSCPEKGLDIYLIIGICGGGSLLMVFVALLVFYITKRKKQRSRRNDEELETRAHRVATEERGRKPHQIPASTPQNPATSQHPPPPPGHRSQAPSHRPPPPGHRVQHQPQKRPPAPSGTQVHQQKGPPLPRPRVQPKPPHGAAENSLSPSSN |  | 64 | 26 | 107 | 68 | < 30 | < 30 | 79 |
